Experimental data reported in patent publication US20240376208A1 (AFFIMED, published 2024).

T1: BCMA on MM.1S target cells (UniProt Q02223 1-184, limits assumed)
T1 sequence (looked up): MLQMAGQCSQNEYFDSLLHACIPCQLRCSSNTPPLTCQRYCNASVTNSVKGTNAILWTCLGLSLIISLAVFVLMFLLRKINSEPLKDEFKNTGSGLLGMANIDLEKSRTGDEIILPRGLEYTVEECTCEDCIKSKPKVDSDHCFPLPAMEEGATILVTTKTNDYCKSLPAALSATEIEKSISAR


Tests used:
[1] = target: T2, recombinant CD16A 158F fused to monomeric human Fc (human, UniProt P08637 17-208); assay: ELISA, construct titrated on coated CD16A 158F fused to monomeric human Fc
T2 construct: also called recombinant CD16 antigen variant; not shown: monomeric human Fc
Procedure: To assess binding of EGFR/CD16 or BCMA/CD16 antibodies to coated antigen in ELISA, 96-well ELISA plates (Immuno Maxisorp, Nunc) were coated overnight at 4° C. with recombinant CD16 antigen variants fused to monomeric human Fc at a concentration of 1.5 μg/mL in 100 mM carbonate-bicarbonate buffer. After blocking with 3% (w/v) skimmed milk powder dissolved in phosphate buffered saline (PBS) serial dilutions of bispecific antibody constructs were incubated on the antigen coated plates for 1.5 h at room temperature. […] After washing, plates were incubated with tetramethylbenzidine substrate (Seramun) for 1-2 min. Reaction was stopped by addition of 0.5 M H₂SO₄ (100 μL/well). Absorbance was measured at 450 nm using a multiwell plate reader, plotted and EC₅₀ values were determined by fitting a nonlinear regression model to sigmoidal dose-response curves (four parameters logistic fit) using GraphPad Prism software.
(§1) Concentration dependent binding of antibody constructs to coated recombinant CD16A antigen, or of soluble monomeric or dimeric CD16 antigen variants to coated or target antigen captured antibody constructs was analyzed in ELISA. Half maximal binding concentrations (EC₅₀) were determined by fitting a nonlinear regression model to sigmoidal dose-response curves (four parameters logistic fit) using GraphPad Prism software.

[2] = target: T3, biotinylated monomeric CD16A antigen (human, UniProt P08637 17-208, limits assumed, biotinylated (site not stated)); assay: ELISA, biotinylated monomeric CD16A titrated on construct captured by coated His-tagged human EGFR extracellular domain
T3 construct: Soluble antigen; also called soluble CD16A antigen
Procedure: (§2) For the capturing approach, 96-well ELISA plates (Immuno Maxisorp, Nunc) were coated overnight at 4° C. with His-tagged human EGFR or BCMA extracellular domain at concentrations of 3.0 or 0.4 μg/mL, respectively. After blocking with 3% (w/v) skimmed milk powder dissolved in phosphate buffered saline (PBS), antigen coated plates were used for capturing of different multivalent bispecific engagers at concentrations of 3-5 μg/mL in PBS containing 0.3% (w/v) skimmed milk powder. After washing three times with 300 μL per well of PBS containing 0.1% (v/v) Tween 20, plates were incubated with serial dilutions of biotinylated dimeric or monomeric CD16A antigen in PBS containing 0.3% (w/v) skimmed milk powder for 1.5 h at room temperature. After washing, plates were incubated with the detection conjugate Streptavidin HRP, 1:10,000 diluted in PBS containing 0.3% (w/v) skimmed milk powder for 1 h followed by washing and incubation with tetramethylbenzidine substrate (Seramun) for 1-2 min. Reaction was stopped by addition of 0.5 M H₂SO₄ (100 μL/well). Absorbance was measured at 450 nm using a multiwell plate reader, plotted and EC₅₀ values were determined by fitting a nonlinear regression model to sigmoidal dose-response curves (four parameters logistic fit) using GraphPad Prism software.
as §1

[3] = target: T4, biotinylated dimeric CD16A antigen (human, UniProt P08637 17-208, limits assumed, biotinylated (site not stated)); assay: ELISA, biotinylated dimeric CD16A titrated on coated construct
T4 construct: Soluble antigen; also called soluble CD16A antigen
Procedure: as §2, §1

[4] = target: T3, biotinylated monomeric CD16A antigen; assay: ELISA, biotinylated monomeric CD16A titrated on coated construct
Procedure: as §2, §1

[5] = target: recombinant CD16A 158V fused to monomeric human Fc (human, UniProt P08637 17-208); assay: ELISA, construct titrated on coated CD16A 158V fused to monomeric human Fc
[6] = target: T5, His-tagged human EGFR extracellular domain (human, UniProt P00533 25-645); assay: ELISA, construct captured on coated His-tagged human EGFR extracellular domain
T5 construct: extracellular domain; Coated at 3.0 ug/mL to capture the EGFR-targeting constructs; not shown: His tag

[7] = target: T4, biotinylated dimeric CD16A antigen; assay: ELISA, biotinylated dimeric CD16A titrated on construct captured by coated His-tagged human EGFR extracellular domain
Procedure: as §2, §1

[8] = target: T4, biotinylated dimeric CD16A antigen; assay: ELISA, biotinylated dimeric CD16A titrated on construct captured by coated His-tagged human BCMA extracellular domain
Procedure: as §2, §1

[9] = target: T3, biotinylated monomeric CD16A antigen; assay: ELISA, biotinylated monomeric CD16A titrated on construct captured by coated His-tagged human BCMA extracellular domain
Procedure: as §2, §1

[10] = target: T1, BCMA on MM.1S target cells; assay: cell-based or functional assay
[11] = target: CD38 on primary human NK cells (human, UniProt P28907 1-300); assay: cell-based or functional assay

T3 sequence (P08637 17-208 limits assumed): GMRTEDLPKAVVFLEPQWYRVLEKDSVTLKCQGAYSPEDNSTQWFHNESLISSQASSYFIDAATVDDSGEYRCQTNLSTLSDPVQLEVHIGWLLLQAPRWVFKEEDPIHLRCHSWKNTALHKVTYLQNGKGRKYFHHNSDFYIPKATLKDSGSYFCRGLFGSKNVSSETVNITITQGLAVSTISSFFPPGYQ
T4 sequence (P08637 17-208 limits assumed): as above
recombinant CD16A 158V fused to monomeric human Fc, sequence (P08637 17-208 F176V): as the sequence (P08637 17-208 limits assumed) above, with F160V counted along it
T2 sequence (P08637 17-208): as the sequence (P08637 17-208 limits assumed) above

Row | Binder | EC50 [1] [pM] | EC50 [2] [pM] | EC50 [3] [pM] | EC50 [4] [pM] | EC50 [5] [pM] | binding result [6] | EC50 [7] [pM] | EC50 [8] [pM] | EC50 [9] [pM] | EC50 [pM], 4 h calcein-release cytotoxicity on BCMA+ MM.1S target cells, NK cells E:T 5:1 [10] [pM] | Emax [%], 4 h calcein-release cytotoxicity on BCMA+ MM.1S target cells, NK cells E:T 5:1 [10] [%] | EC50 [pM], 4 h calcein-release NK cell fratricide assay, E:T 1:1 [11] [pM] | Emax [%], 4 h calcein-release NK cell fratricide assay, E:T 1:1 [11] [%]
1 | scFv-IgAb_47 (bispecific antibody) heavy: QVQLVQSGAEVKKPGESLKVSCKASGYTFTSYYMHWVRQAPGQGLEWMGAIEPMYGSTSYAQKFQGRVTMTRDTSTSTVYMELSSLRSEDTAVYYCARGSAYYYDFADYWGQGTLVTVSSASTKGPSVFPLAPSSKSTSGGTAALGCLVKDYFPEPVTVSWNSGALTSGVHTFPAVLQSSGLYSLSSVVTVPSSSLGTQTYICNVNHKPSNTKVDKKVEPKSCDKTHTCPPCPAPEFEGGPSVFLFPPKPKDTLMISRTPEVTCVVVAVSHEDPEVKFNWYVDGVEVHNAKTKPREEQYNSTYRVVSVLTVLHQDWLNGKEYKCKVSNKALPAPIEKTISKAKGQPREPQVYTLPPSREEMTKNQVSLTCLVKGFYPSDIAVEWESNGQPENNYKTTPPVLDSDGSFFLYSKLTVDKSRWQQGNVFSCSVMHEALHNHYTQKSLSLSPGGGGGSGGGGSQVQLQESGPGLVKPSETLSLTCTVSGGSVSSGSYYWSWIRQPPGKGLEWIGYIYYSGSTNYNPSLKSRVTISVDTSKNQFSLKLSSVTAADTAVYYCARNPISIPAFDIWGQGTMVTVSSGGSGGSGGSGGSGGSGGSQPVLTQPPSVSVAPGKTARITCGGNNIGSKSVHWYQQKPGQAPVLVIYYDSDRPSGIPERFSGSNSGNTATLTISRVEAGDEADYYCQVWDTSSDHVLFGGGTKLTVL light: SYVLTQPSSVSVAPGQTATISCGGHNIGSKNVHWYQQRPGQSPVLVIYQDNKRPSGIPERFSGSNSGNTATLTISGTQAMDEADYYCQVWDNYSVLFGGGTKLTVLGQPKAAPSVTLFPPSSEELQANKATLVCLISDFYPGAVTVAWKADSSPVKAGVETTTPSKQSNNKYAASSYLSLTPEQWKSHRSYSCQVTHEGSTVEKTVAPTECS | 180 | 1620 | 890 | 2000 | 160 | binds | 760 |  |  |  |  |  | 
2 | aBi-scDb-Fc_02 (bispecific antibody) chain 1: DKTHTCPPCPAPEFEGGPSVFLFPPKPKDTLMISRTPEVTCVVVAVSHEDPEVKFNWYVDGVEVHNAKTKPREEQYNSTYRVVSVLTVLHQDWLNGKEYKCKVSNKALPAPIEKTISKAKGQPREPQVYTLPPSREEMTKNQVSLTCLVKGFYPSDIAVEWESNGQPENNYKTTPPVLDSDGSFFLTSKLTVDKSRWQQGNVFSCSVMHEALHNHYTQKSLSLSPGGGGGSGGGGSSYVLTQPSSVSVAPGQTATISCGGHNIGSKNVHWYQQRPGQSPVLVIYQDNKRPSGIPERFSGSNSGNTATLTISGTQAMDEADYYCQVWDNYSVLFGGGTKLTVLGGSGGSQVQLVQSGAEVKKPGESLKVSCKASGYTFTSYYMHWVRQAPGQGLEWMGAIEPMYGSTSYAQKFQGRVTMTRDTSTSTVYMELSSLRSEDTAVYYCARGSAYYYDFADYWGQGTLVTVSSGGSGGSGGSGGSGGSGGSSYVLTQPSSVSVAPGQTATISCGGHNIGSKNVHWYQQRPGQSPVLVIYQDNKRPSGIPERFSGSNSGNTATLTISGTQAMDEADYYCQVWDNYSVLFGGGTKLTVLGGSGGSQVQLVQSGAEVKKPGESLKVSCKASGYTFTSYYMHWVRQAPGQGLEWMGAIEPMYGSTSYAQKFQGRVTMTRDTSTSTVYMELSSLRSEDTAVYYCARGSAYYYDFADYWGQGTLVTVSSAAAGSHHHHHH chain 2: EVQLLESGGGLVQPGGSLRLSCAASGFTFSNYDMAWVRQAPGKGLEWVSSISTRGDITSYRDSVKGRFTISRDNSKNTLYLQMNSLRAEDTAVYYCARQDYYTDYMGFAYWGQGTLVTVSSGGGGSGGGGSGGGGSAIQMTQSPSSLSASVGDRVTITCRASEDIYNGLAWYQQKPGKAPKLLIYGASSLQDGVPSRFSGSGSGTEFTLTISSLQPEDEATYYCAGPHKYPLTFGGGTKVEIKDKTHTCPPCPAPEFEGGPSVFLFPPKPKDTLMISRTPEVTCVVVAVSHEDPEVKFNWYVDGVEVHNAKTKPREEQYNSTYRVVSVLTVLHQDWLNGKEYKCKVSNKALPAPIEKTISKAKGQPREPQVYTLPPSREEMTKNQVSLYCLVKGFYPSDIAVEWESNGQPENNYKTTPPVLDSDGSFFLYSKLTVDKSRWQQGNVFSCSVMHEALHNHYTQKSLSLSPGGGGGSGGGGSSYVLTQPSSVSVAPGQTATISCGGHNIGSKNVHWYQQRPGQSPVLVIYQDNKRPSGIPERFSGSNSGNTATLTISGTQAMDEADYYCQVWDNYSVLFGGGTKLTVLGGSGGSQVQLVQSGAEVKKPGESLKVSCKASGYTFTSYYMHWVRQAPGQGLEWMGAIEPMYGSTSYAQKFQGRVTMTRDTSTSTVYMELSSLRSEDTAVYYCARGSAYYYDFADYWGQGTLVTVSSGGSGGSGGSGGSGGSGGSSYVLTQPSSVSVAPGQTATISCGGHNIGSKNVHWYQQRPGQSPVLVIYQDNKRPSGIPERFSGSNSGNTATLTISGTQAMDEADYYCQVWDNYSVLFGGGTKLTVLGGSGGSQVQLVQSGAEVKKPGESLKVSCKASGYTFTSYYMHWVRQAPGQGLEWMGAIEPMYGSTSYAQKFQGRVTMTRDTSTSTVYMELSSLRSEDTAVYYCARGSAYYYDFADYWGQGTLVTVSSAAAGSHHHHHH | 450 |  | 1000 | 3840 | 340 |  |  | 1250 | 2360 | 2.3 | 62.8 |  | 
3 | IgAb_51 (antibody, V domains shown) VH: EVQLLESGGGLVQPGGSLRLSCAVSGFTFNSFAMSWVRQAPGKGLEWVSAISGSGGGTYYADSVKGRFTISRDNSKNTLYLQMNSLRAEDTAVYFCAKDKILWFGEPVFDYWGQGTLVTVSS VL: not shown |  |  |  |  |  |  |  |  |  |  |  | 66.5 | 68.6
